In the series the target is T1, AcTPase4xOs (enhanced, rice codon-optimized Ac transposase with SV40 NLS) (Zea mays (engineered)) (UniProt P08770).
T1 sequence (P08770 whole entry, looked up): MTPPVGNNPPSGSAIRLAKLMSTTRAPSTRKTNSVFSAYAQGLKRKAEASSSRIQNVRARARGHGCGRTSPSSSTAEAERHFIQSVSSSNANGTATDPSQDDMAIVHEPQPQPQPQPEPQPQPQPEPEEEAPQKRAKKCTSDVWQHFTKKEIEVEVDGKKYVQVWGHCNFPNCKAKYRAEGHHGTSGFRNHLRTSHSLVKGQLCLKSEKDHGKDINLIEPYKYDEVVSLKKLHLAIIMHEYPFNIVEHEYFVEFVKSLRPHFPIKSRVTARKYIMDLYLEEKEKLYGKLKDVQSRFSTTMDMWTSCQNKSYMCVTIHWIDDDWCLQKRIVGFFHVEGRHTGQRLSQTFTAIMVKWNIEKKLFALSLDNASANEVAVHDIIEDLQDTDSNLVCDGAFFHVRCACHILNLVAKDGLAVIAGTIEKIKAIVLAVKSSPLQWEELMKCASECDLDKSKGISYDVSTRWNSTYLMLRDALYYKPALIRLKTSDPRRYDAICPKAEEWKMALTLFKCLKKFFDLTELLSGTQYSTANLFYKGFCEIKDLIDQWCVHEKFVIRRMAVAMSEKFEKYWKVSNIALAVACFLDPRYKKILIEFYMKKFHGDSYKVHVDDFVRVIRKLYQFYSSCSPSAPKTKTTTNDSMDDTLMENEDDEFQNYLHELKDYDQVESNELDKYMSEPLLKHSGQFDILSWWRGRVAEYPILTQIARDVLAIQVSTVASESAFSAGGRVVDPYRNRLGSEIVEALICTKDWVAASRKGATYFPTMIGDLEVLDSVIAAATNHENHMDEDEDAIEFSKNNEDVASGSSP
The series can be described thus: cell_activity. The following applies: pZEN31E in rice callus, heat shock 42 C 90 min; 81.1% without heat shock; 0% for pZEN30NC lacking transposase.

For the sequence “CAGGGATGAAAGTAGGATGGGAAAATCCCGTACCGACCGTTATCGTATAACCGATTTTGTTAGTTTTATCCCGATCGATTTCGAACCCGAGGTAAAAAACGAAAACGGAACGGAAACGGGATATACAAAACGGTAAACGGAAACGGAAACGGTAGAGCTAGTTTCCCGACCGTTTCACCGGGATCCCGTTTTTAATCGGGATGATCCCGTTTCGTTACCGTATTTTCTAATTCGGGATGACTGCAATATGGCCAGCTCCAACTCCCATCCATAACCACTGAGGCCCAGCCCATGTAAGAATGCTCCAGATTTATATGGATTTTATCTATGTTTAATTAAGACTTGTGTTTACAATTTTTTATATTTGTTTTTAAGTTTTGAATATATGTTTTCATGTGTGATTTTACCGAACAAAAATACCGGTTCCCGTCCGATTTCGACTTTAACCCGACCGGATCGTATCGGTTTTCGATTACCGTATTTATCCCGTTCGTTTTCGTTACCGGTATATCCCGTTTTCGTTTCCGTCCCGCAAGTTAAATATGAAAATGAAAACGGTAGAGGTATTTTACCGACCGTTACCGACCGTTTTCATCCCTA (double strand)”, the activity (% callus lines with excision) was determined as 95.1.
